Assays:
human factor D [1] = molecular target: T1, human factor D (human, UniProt P00746 26-253); experiment: cell-based or functional assay
human factor D [2] = molecular target: T1, human factor D; experiment: cell-based or functional assay; remark: listed apart in the source
human factor D [3] = molecular target: T1, human factor D; experiment: SPR Biacore T200, Fab captured by anti-huFab, human fD injected, 25 C
Description: Antibody Fab fragments were immobilized on a Series S CM5 sensor chip using the anti-huFab capture kit (GE healthcare Cat. #28-9583-25) following a protocol described by the manufacturer. Kinetics of binding were calculated from sensorgrams recorded for injection of 60 μL aliquots of solutions of human factor D varied in concentration from 0.39 nM to 25 nM in 2-fold increments. The flow rate was 30 μL/minute, the running buffer was HBS-P+, the temperature of analysis was 25° C., real-time reference cell subtraction was employed, and dissociation following factor D injection was followed for 10 minutes. After subtraction of the sensorgram observed for injection of running buffer, data were analyzed according to a 1:1 model using BiaEval software v4.1 (GE Healthcare) to extract the kinetics and affinity constants.

human factor D [4] = molecular target: T1, human factor D; experiment: cell-based or functional assay; remark: listed apart in the source
human factor D [5] = molecular target: T1, human factor D; experiment: SPR total binding to fD over time; Fab 100 mg/mL in PBS, 37 C, 10 weeks (FIG. 2B)

T1 sequence (P00746 26-253 limits assumed): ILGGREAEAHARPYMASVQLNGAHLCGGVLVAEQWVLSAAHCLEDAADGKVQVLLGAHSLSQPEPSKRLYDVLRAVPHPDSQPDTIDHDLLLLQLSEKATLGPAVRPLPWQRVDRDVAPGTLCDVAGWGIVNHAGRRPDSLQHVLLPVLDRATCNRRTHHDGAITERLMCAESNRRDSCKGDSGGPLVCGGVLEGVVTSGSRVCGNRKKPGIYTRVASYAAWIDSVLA

Binder | Kd (human factor D [3]) [pM] | also measured
AFD.v14.C+TP octamer (Cys-modified AFD.v14-8ARM (TP)-PEG-MAL conjugate) (other, C-terminal Cys linked through maleimide to one arm of a 40,000 MW eight-armed PEG with tripentaerythritol (TP) core (8ARM (TP)-PEG-MAL, JenKem)) light: DIQVTQSPSSLSASVGDRVTITCITSTSIESDMNWYQQKPGKVPKLLISGGNTLRPGVPSRFSGSGSGTDFTLTISSLQPEDVATYYCLQSDSLPYTFGQGTKVEIKRTVAAPSVFIFPPSDEQLKSGTASVVCLLNNFYPREAKVQWKVDNALQSGNSQESVTEQDSKDSTYSLSSTLTLSKADYEKHKVYACEVTHQGLSSPVTKSFNRGEC heavy: EVQLVQSGPELKKPGASVKVSCKASGYTFTNYGMNWVRQAPGQGLEWMGWINTYTGETTYAEDFKGRFVFSLDTSVSTAYLQISSLKAEDTAVYYCEREGGVSNWGQGTLVTVSSASTKGPSVFPLAPSSKSTSGGTAALGCLVKDYFPEPVTVSWNSGALTSGVHTFPAVLQSSGLYSLSSVVTVPSSSLGTQTYICNVNHKPSNTKVDKKVEPKSCDKTHTC | – | Average IC50 fB Activation (pM), TR-FRET, 125 pM fD; AFD.v14 TP octamer (CEX pool) (human factor D [1]): 77 pM; Average IC50 fB Activation (pM), TR-FRET, 125 pM fD; AFD.v14 TP octamer (S200 pool) (human factor D [1]): 104 pM
AFD.v8 tetramer (AFD.v8.C conjugated to Sunbright PTE-400MA four-armed PEG) (other, C-terminal Cys linked through maleimide to one arm of a 40,000 MW four-armed PEG (Sunbright PTE-400MA)) light: DIQVTQSPSSLSASVGDRVTITCITSTSIESDMNWYQQKPGKVPKLLISGGNTLRPGVPSRFSGSGSGTDFTLTISSLQPEDVATYYCLQSDSLPYTFGQGTKVEIKRTVAAPSVFIFPPSDEQLKSGTASVVCLLNNFYPREAKVQWKVDNALQSGNSQESVTEQDSKDSTYSLSSTLTLSKADYEKHKVYACEVTHQGLSSPVTKSFNRGEC heavy: EVQLVQSGPELKKPGASVKVSCKASGYTFTNYGMNWVRQAPGQGLEWMGWINTYTGETTYAEDFKGRFVFSLDTSVSTAYLQISSLKAEDTAVYYCEREGGVNNWGQGTLVTVSSASTKGPSVFPLAPSSKSTSGGTAALGCLVKDYFPEPVTVSWNSGALTSGVHTFPAVLQSSGLYSLSSVVTVPSSSLGTQTYICNVNHKPSNTKVDKKVEPKSCDKTHTC | – | Average IC50 fB Activation (pM), TR-FRET, 50 pM fD (human factor D [2]): 11 pM
AFD.v14 tetramer (AFD.v14.C conjugated to Sunbright PTE-400MA four-armed PEG) (other, C-terminal Cys linked through maleimide to one arm of a 40,000 MW four-armed PEG (Sunbright PTE-400MA)) light: DIQVTQSPSSLSASVGDRVTITCITSTSIESDMNWYQQKPGKVPKLLISGGNTLRPGVPSRFSGSGSGTDFTLTISSLQPEDVATYYCLQSDSLPYTFGQGTKVEIKRTVAAPSVFIFPPSDEQLKSGTASVVCLLNNFYPREAKVQWKVDNALQSGNSQESVTEQDSKDSTYSLSSTLTLSKADYEKHKVYACEVTHQGLSSPVTKSFNRGEC heavy: EVQLVQSGPELKKPGASVKVSCKASGYTFTNYGMNWVRQAPGQGLEWMGWINTYTGETTYAEDFKGRFVFSLDTSVSTAYLQISSLKAEDTAVYYCEREGGVSNWGQGTLVTVSSASTKGPSVFPLAPSSKSTSGGTAALGCLVKDYFPEPVTVSWNSGALTSGVHTFPAVLQSSGLYSLSSVVTVPSSSLGTQTYICNVNHKPSNTKVDKKVEPKSCDKTHTC | – | Average IC50 fB Activation (pM), TR-FRET, 50 pM fD (human factor D [2]): 14.8 pM
AFD.v1 (VL-D28S) (Fab, V domains shown, Fab variant of aFD.WT) VH: EVQLVQSGPELKKPGASVKVSCKASGYTFTNYGMNWVRQAPGQGLEWMGWINTYTGETTYADDFKGRFVFSLDTSVSTAYLQISSLKAEDTAVYYCEREGGVNNWGQGTLVTVSS VL: DIQVTQSPSSLSASVGDRVTITCITSTSIDDDMNWYQQKPGKVPKLLISGGNTLRPGVPSRFSGSGSGTDFTLTISSLQPEDVATYYCLQSDSLPYTFGQGTKVEIKR | ≤ 10 | –
AFD.v14.C (Cys-modified AFD.v14 variant, Fab-C) (Fab, V domains shown) VH: EVQLVQSGPELKKPGASVKVSCKASGYTFTNYGMNWVRQAPGQGLEWMGWINTYTGETTYAEDFKGRFVFSLDTSVSTAYLQISSLKAEDTAVYYCEREGGVSNWGQGTLVTVSS VL: DIQVTQSPSSLSASVGDRVTITCITSTSIESDMNWYQQKPGKVPKLLISGGNTLRPGVPSRFSGSGSGTDFTLTISSLQPEDVATYYCLQSDSLPYTFGQGTKVEIKR | – | Average IC50 fB Activation (pM), TR-FRET, 125 pM fD (human factor D [1]): 72 pM
AFD.v14 (SIESD.N103S; VL-D28S:D30E:D31S VH-D62E VH-N103S) (Fab, V domains shown, Fab; also called SIESD.N103S (AFD.v14); AFD.14) VH: EVQLVQSGPELKKPGASVKVSCKASGYTFTNYGMNWVRQAPGQGLEWMGWINTYTGETTYAEDFKGRFVFSLDTSVSTAYLQISSLKAEDTAVYYCEREGGVSNWGQGTLVTVSS VL: DIQVTQSPSSLSASVGDRVTITCITSTSIESDMNWYQQKPGKVPKLLISGGNTLRPGVPSRFSGSGSGTDFTLTISSLQPEDVATYYCLQSDSLPYTFGQGTKVEIKR | 25.6 | Average IC50 fB Activation (pM), TR-FRET, 50 pM fD (human factor D [2]): 34 pM; Average IC50 fB Activation (pM), TR-FRET, 125 pM fD (human factor D [1]): 87 pM; IC50 (nM) AP Hemolysis (rabbit erythrocytes, C1q-depleted human serum) (human factor D [4]): 4.1 nM; loss in binding (human factor D [5]): 10%
AFD.v3 (VL-D31S) (Fab, V domains shown, Fab variant of aFD.WT) VH: EVQLVQSGPELKKPGASVKVSCKASGYTFTNYGMNWVRQAPGQGLEWMGWINTYTGETTYADDFKGRFVFSLDTSVSTAYLQISSLKAEDTAVYYCEREGGVNNWGQGTLVTVSS VL: DIQVTQSPSSLSASVGDRVTITCITSTDIDSDMNWYQQKPGKVPKLLISGGNTLRPGVPSRFSGSGSGTDFTLTISSLQPEDVATYYCLQSDSLPYTFGQGTKVEIKR | ≤ 10 | –
AFD.v7 (TM.D92E; VL-D30E:D31S VH-D62E VL-D92E) (Fab, V domains shown, Fab variant of aFD.WT; also called TM.D92E (AFD.v7)) VH: EVQLVQSGPELKKPGASVKVSCKASGYTFTNYGMNWVRQAPGQGLEWMGWINTYTGETTYAEDFKGRFVFSLDTSVSTAYLQISSLKAEDTAVYYCEREGGVNNWGQGTLVTVSS VL: DIQVTQSPSSLSASVGDRVTITCITSTDIESDMNWYQQKPGKVPKLLISGGNTLRPGVPSRFSGSGSGTDFTLTISSLQPEDVATYYCLQSESLPYTFGQGTKVEIKR | ≤ 10 | IC50 (nM) AP Hemolysis (rabbit erythrocytes, C1q-depleted human serum) (human factor D [4]): 3.8 nM
AFD.v8 (SIESD; VL-D28S:D30E:D31S VH-D62E) (Fab, V domains shown, Fab; also called SIESD (AFD.v8)) VH: EVQLVQSGPELKKPGASVKVSCKASGYTFTNYGMNWVRQAPGQGLEWMGWINTYTGETTYAEDFKGRFVFSLDTSVSTAYLQISSLKAEDTAVYYCEREGGVNNWGQGTLVTVSS VL: DIQVTQSPSSLSASVGDRVTITCITSTSIESDMNWYQQKPGKVPKLLISGGNTLRPGVPSRFSGSGSGTDFTLTISSLQPEDVATYYCLQSDSLPYTFGQGTKVEIKR | 16.7 | Average IC50 fB Activation (pM), TR-FRET, 50 pM fD (human factor D [2]): 27.6 pM; IC50 (nM) AP Hemolysis (rabbit erythrocytes, C1q-depleted human serum) (human factor D [4]): 4.2 nM
AFD.v10 (SIESD.D92E; VL-D28S:D30E:D31S VH-D62E VL-D92E) (Fab, V domains shown, Fab variant of aFD.WT) VH: EVQLVQSGPELKKPGASVKVSCKASGYTFTNYGMNWVRQAPGQGLEWMGWINTYTGETTYAEDFKGRFVFSLDTSVSTAYLQISSLKAEDTAVYYCEREGGVNNWGQGTLVTVSS VL: DIQVTQSPSSLSASVGDRVTITCITSTSIESDMNWYQQKPGKVPKLLISGGNTLRPGVPSRFSGSGSGTDFTLTISSLQPEDVATYYCLQSESLPYTFGQGTKVEIKR | 70 | –
AFD.v13 (SIESD.N103Q; VL-D28S:D30E:D31S VH-D62E VH-N103Q) (Fab, V domains shown, Fab variant of aFD.WT) VH: EVQLVQSGPELKKPGASVKVSCKASGYTFTNYGMNWVRQAPGQGLEWMGWINTYTGETTYAEDFKGRFVFSLDTSVSTAYLQISSLKAEDTAVYYCEREGGVQNWGQGTLVTVSS VL: DIQVTQSPSSLSASVGDRVTITCITSTSIESDMNWYQQKPGKVPKLLISGGNTLRPGVPSRFSGSGSGTDFTLTISSLQPEDVATYYCLQSDSLPYTFGQGTKVEIKR | 60 | –
AFD.v4 (VL-D32S) (Fab, V domains shown, Fab variant of aFD.WT) VH: EVQLVQSGPELKKPGASVKVSCKASGYTFTNYGMNWVRQAPGQGLEWMGWINTYTGETTYADDFKGRFVFSLDTSVSTAYLQISSLKAEDTAVYYCEREGGVNNWGQGTLVTVSS VL: DIQVTQSPSSLSASVGDRVTITCITSTDIDDSMNWYQQKPGKVPKLLISGGNTLRPGVPSRFSGSGSGTDFTLTISSLQPEDVATYYCLQSDSLPYTFGQGTKVEIKR | 26 | –
AFD.v11 (VL-D28S:D30E:D31S VH-D62E VH-N52S) (Fab, V domains shown, Fab variant of aFD.WT; also called SIESD + VH-N52S) VH: EVQLVQSGPELKKPGASVKVSCKASGYTFTNYGMNWVRQAPGQGLEWMGWISTYTGETTYAEDFKGRFVFSLDTSVSTAYLQISSLKAEDTAVYYCEREGGVNNWGQGTLVTVSS VL: DIQVTQSPSSLSASVGDRVTITCITSTSIESDMNWYQQKPGKVPKLLISGGNTLRPGVPSRFSGSGSGTDFTLTISSLQPEDVATYYCLQSDSLPYTFGQGTKVEIKR | 70 | –
AFD.v9 (VL-D28S:D30E:D31S VH-D62E VL-N34S) (Fab, V domains shown, Fab variant of aFD.WT; also called SIESD + VL-N34S) VH: EVQLVQSGPELKKPGASVKVSCKASGYTFTNYGMNWVRQAPGQGLEWMGWINTYTGETTYAEDFKGRFVFSLDTSVSTAYLQISSLKAEDTAVYYCEREGGVNNWGQGTLVTVSS VL: DIQVTQSPSSLSASVGDRVTITCITSTSIESDMSWYQQKPGKVPKLLISGGNTLRPGVPSRFSGSGSGTDFTLTISSLQPEDVATYYCLQSDSLPYTFGQGTKVEIKR | 30 | –
AFD.v5 (VL-D28S:D31S:D32S) (Fab, V domains shown, Fab variant of aFD.WT) VH: EVQLVQSGPELKKPGASVKVSCKASGYTFTNYGMNWVRQAPGQGLEWMGWINTYTGETTYADDFKGRFVFSLDTSVSTAYLQISSLKAEDTAVYYCEREGGVNNWGQGTLVTVSS VL: DIQVTQSPSSLSASVGDRVTITCITSTSIDSSMNWYQQKPGKVPKLLISGGNTLRPGVPSRFSGSGSGTDFTLTISSLQPEDVATYYCLQSDSLPYTFGQGTKVEIKR | 280 | –
AFD.v12 (SIESD.N103D; VL-D28S:D30E:D31S VH-D62E VH-N103D) (Fab, V domains shown, Fab variant of aFD.WT) VH: EVQLVQSGPELKKPGASVKVSCKASGYTFTNYGMNWVRQAPGQGLEWMGWINTYTGETTYAEDFKGRFVFSLDTSVSTAYLQISSLKAEDTAVYYCEREGGVDNWGQGTLVTVSS VL: DIQVTQSPSSLSASVGDRVTITCITSTSIESDMNWYQQKPGKVPKLLISGGNTLRPGVPSRFSGSGSGTDFTLTISSLQPEDVATYYCLQSDSLPYTFGQGTKVEIKR | 23 | –
